From patent US20220289833A1 (BIOSION, published 2022)
Where a chain is given by its changes, count along the chain named.

T1: Recombinant cynomolgus monkey TSLP-his (cynomolgus monkey)
T1 construct: Prepared in-house; Amine-coupled to CM5 chip in SPR, coated on plates in the indirect ELISA; also called cynomolgus TSLP; cynomolgus TSLP-his protein
T1 chain: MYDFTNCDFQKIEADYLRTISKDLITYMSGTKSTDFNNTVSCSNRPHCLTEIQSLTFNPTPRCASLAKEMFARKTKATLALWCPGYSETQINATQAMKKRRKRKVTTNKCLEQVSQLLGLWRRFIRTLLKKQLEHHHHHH

B1: hu1C5F12E9-V8 (IgG4) (antibody)
heavy: not shown
light: DIQMTQSPSSLSASVGDRVTITCRPTENIYSYLAWYQQKPGKAPKLLIYFARTLAEGVPSRFSGSGSGTDFTLTISSLQPEDFATYYCQHHYGTPWTFGGGTKVEIKRTVAAPSVFIFPPSDEQLKSGTASVVCLLNNFYPREAKVQWKVDNALQSGNSQESVTEQDSKDSTYSLSSTLTLSKADYEKHKVYACEVTHQGLSSPVTKSFNRGEC
notes: also called huC5F12E9-V8
B2: hu1C5F12E9-V14 (IgG4) (antibody)
heavy: not shown
light: B1 light with A43S
notes: also called huC5F12E9-V14
B3: hu1C5F12E9-V16 (antibody, human IgG4 S228P, kappa, V domains shown)
VH: QVQLVQSGAEVKKPGASVKVSCKASGYTFTTYWMHWVRQAPGQGLEWMGVIDPSDSDTTYNQKFKGRATMTRDTSTSTVYMELSSLRSEDTAVYYCTRSLDGYYDYWGQGTLVTVSS
VL: DIQMTQSPSSLSASVGDRVTITCRPTENIYSYLAWYQQKPGKSPKLLIYFARTLAEGVPSRFSGSGSGTDFTLTISSLQPEDFATYYCQHHYGTPWTFGGGTKVEIKR
B4: hu1C5F12E9-V11 (antibody, human IgG4 S228P, kappa, V domains shown)
VH: B3 VH with R67K
VL: B3 VL with S43A
B5: hu1C5F12E9-V17 (antibody, human IgG4 S228P, kappa, V domains shown)
VH: B3 VH with R67K
VL: B3 VL
B6: hu1C5F12E9-V3 (antibody, human IgG4 S228P, kappa, V domains shown)
VH: B3 VH with A68V, R72V
VL: B3 VL with I48V
B7: hu1C5F12E9-V15 (antibody, human IgG4 S228P, kappa, V domains shown)
VH: B3 VH with A68V, R72V
VL: B3 VL
B8: hu1C5F12E9-V9 (antibody, human IgG4 S228P, kappa, V domains shown)
VH: B3 VH with A68V, R72V
VL: B3 VL with S43A
B9: hu1C5F12E9-V18 (antibody, human IgG4 S228P, kappa, V domains shown)
VH: B3 VH with R67K, R72V
VL: B3 VL
B10: hu1C5F12E9-V7 (antibody, human IgG4 S228P, kappa, V domains shown)
VH: B3 VH with M48I, M70L, R72V, T76S, V79A
VL: B3 VL with S43A
B11: hu1C5F12E9-V5 (antibody, human IgG4 S228P, kappa, V domains shown)
VH: B3 VH with R67K
VL: B3 VL with I48V
B12: hu1C5F12E9-V13 (antibody, human IgG4 S228P, kappa, V domains shown)
VH: B3 VH with M48I, M70L, R72V, T76S, V79A
VL: B3 VL
B13: hu1C5F12E9-V1 (antibody, human IgG4 S228P, kappa, V domains shown)
VH: B3 VH with M48I, M70L, R72V, T76S, V79A
VL: B3 VL with I48V
B14: hu1C5F12E9-V12 (antibody, human IgG4 S228P, kappa, V domains shown)
VH: B3 VH with R67K, R72V
VL: B3 VL with S43A
B15: 1F5H12D7 (antibody, V domains shown)
VH: QVQLQQPGTELVKPGASVKMSCKASGYTFTTYWMHWVKQRPGQGLEWIGVIDPSDSDTTYNQKFKGKATLTVDTSSSTAYMQLSSLTSEDSAVYYCTRSLDGYYDYWGQGTTLTVSS
VL: DIQMTQSPASLSASVGETVTITCRPTENIYSYLAWYQQKQGKSPHLLVYFARTLAEGVPSRFSGSGSGTQFSLKINSLQPEDFGIYYCQHHYGTPWTFGGGTKLEIK
B16: 1G3B9B1 (antibody, V domains shown)
VH: B15 VH
VL: B15 VL
notes: Mouse hybridoma mAb
B17: 1H3F11B7 (antibody, V domains shown)
VH: B15 VH
VL: B15 VL
notes: Mouse hybridoma mAb
B18: 1G2H12A1 (antibody, V domains shown)
VH: B15 VH
VL: B15 VL
notes: Mouse hybridoma mAb
B19: hu1C5F12E9-V8 (IgG1) (antibody)
heavy: not shown
light: B1 light
notes: Humanized, human IgG1/kappa
B20: hu1C5F12E9-V14 (IgG1) (antibody)
heavy: not shown
light: B1 light with A43S
notes: Humanized, human IgG1/kappa

Biological target: T2, Recombinant human TSLP-his (human, UniProt Q969D9 29-159)
T2 construct: Prepared in-house; Amine-coupled to CM5 chip in SPR, loaded on APS sensors in Octet, biotin-labeled in the capture ELISA, unlabeled in the cell functional assays; also called human TSLP-his protein
Experiment: SPR, BIAcore; protocol of Example 2

Question: How did the Kd turn out when B1 was run?
Answer: < 0.0598 nM

Question: Which results are given for B2?
Answer: Kd: < 0.061 nM; koff: < 1e-05 s⁻¹; kon: 164000 M⁻¹ s⁻¹

Biological target: T1, Recombinant cynomolgus monkey TSLP-his
Experiment: SPR, BIAcore; protocol of Example 2

Question: B1 was tested. Which Kd did it give?
Answer: < 0.0328 nM

Question: With B2 as the binder, how does the Kd read?
Answer: < 0.0322 nM

Question: And the koff?
Answer: < 1e-05 s⁻¹

Question: And the kon?
Answer: 311000 M⁻¹ s⁻¹

Biological target: T2, Recombinant human TSLP-his
Experiment: SPR, Biacore T200; protocol of Example 2

Question: For B2, which Kd is on record?
Answer: < 0.0956 nM

Question: What about the koff of the same binder?
Answer: < 1e-05 s⁻¹

Question: What about the kon of the same binder?
Answer: 105000 M⁻¹ s⁻¹

Question: Which results are given for B3?
Answer: Kd: < 0.0962 nM; koff: < 1e-05 s⁻¹; kon: 104000 M⁻¹ s⁻¹

Question: Which results are given for B4?
Answer: Kd: < 0.11 nM; koff: < 1e-05 s⁻¹; kon: 90700 M⁻¹ s⁻¹

Question: How did the Kd turn out when B5 was run?
Answer: < 0.0909 nM

Question: And the koff?
Answer: < 1e-05 s⁻¹

Question: What about the kon of the same binder?
Answer: 110000 M⁻¹ s⁻¹

Question: Which Kd does the source give for B6 here?
Answer: < 0.0971 nM

Question: What about the koff of the same binder?
Answer: < 1e-05 s⁻¹

Question: What about the kon of the same binder?
Answer: 103000 M⁻¹ s⁻¹

Question: B7 was tested. Which Kd did it give?
Answer: < 0.0893 nM

Question: What about the koff of the same binder?
Answer: < 1e-05 s⁻¹

Question: What about the kon of the same binder?
Answer: 112000 M⁻¹ s⁻¹

Question: What does the source list for B8?
Answer: Kd: < 0.082 nM; koff: < 1e-05 s⁻¹; kon: 122000 M⁻¹ s⁻¹

Question: Which results are given for B9?
Answer: Kd: < 0.0826 nM; koff: < 1e-05 s⁻¹; kon: 121000 M⁻¹ s⁻¹

Question: B10 was tested. Which Kd did it give?
Answer: < 0.0926 nM

Question: What about the koff of the same binder?
Answer: < 1e-05 s⁻¹

Question: And the kon?
Answer: 108000 M⁻¹ s⁻¹

Question: How did the Kd turn out when B11 was run?
Answer: < 0.0971 nM

Question: And the koff?
Answer: < 1e-05 s⁻¹

Question: What about the kon of the same binder?
Answer: 103000 M⁻¹ s⁻¹

Question: B12 was tested. Which Kd did it give?
Answer: < 0.0962 nM

Question: And the koff?
Answer: < 1e-05 s⁻¹

Question: And the kon?
Answer: 104000 M⁻¹ s⁻¹

Question: B13 was tested. Which Kd did it give?
Answer: < 0.101 nM

Question: What about the koff of the same binder?
Answer: < 1e-05 s⁻¹

Question: And the kon?
Answer: 99300 M⁻¹ s⁻¹

Question: What does the source list for B14?
Answer: Kd: < 0.104 nM; koff: < 1e-05 s⁻¹; kon: 96100 M⁻¹ s⁻¹

Biological target: T1, Recombinant cynomolgus monkey TSLP-his
Experiment: indirect ELISA on coated cynomolgus TSLP-his

Question: B1 was tested. Which EC50 did it give?
Answer: 0.17 nM

Question: With B2 as the binder, how does the EC50 read?
Answer: 0.151 nM

Biological target: T2, Recombinant human TSLP-his
Experiment: SPR, Biacore T200; below the instrument limit, roughly calculated from the sensorgram

Question: How did the koff turn out when B2 was run?
Answer: ~3.21e-06 s⁻¹

Question: For B3, which koff is on record?
Answer: ~1.17e-06 s⁻¹

Question: With B4 as the binder, how does the koff read?
Answer: ~7.56e-07 s⁻¹

Question: Which koff does the source give for B5 here?
Answer: ~6.43e-06 s⁻¹

Question: How did the koff turn out when B6 was run?
Answer: < 1e-05 s⁻¹

Question: Which koff does the source give for B7 here?
Answer: ~3.63e-06 s⁻¹

Question: With B8 as the binder, how does the koff read?
Answer: ~6.57e-07 s⁻¹

Question: With B9 as the binder, how does the koff read?
Answer: ~9.65e-06 s⁻¹

Question: How did the koff turn out when B10 was run?
Answer: < 1e-05 s⁻¹

Question: How did the koff turn out when B11 was run?
Answer: < 1e-05 s⁻¹

Question: For B12, which koff is on record?
Answer: ~3.62e-07 s⁻¹

Question: With B13 as the binder, how does the koff read?
Answer: < 1e-05 s⁻¹

Question: With B14 as the binder, how does the koff read?
Answer: < 1e-05 s⁻¹

Biological target: T2, Recombinant human TSLP-his
Experiment: SPR, Biacore T200; TSLP-his amine-coupled to CM5 chip, antibody as analyte; 1:1 Langmuir fit

Question: Which Kd does the source give for B15 here?
Answer: < 0.112 nM

Question: What about the koff of the same binder?
Answer: < 1e-05 s⁻¹

Question: And the kon?
Answer: 89700 M⁻¹ s⁻¹

Question: How did the Kd turn out when B16 was run?
Answer: < 0.107 nM

Question: And the koff?
Answer: < 1e-05 s⁻¹

Question: And the kon?
Answer: 93600 M⁻¹ s⁻¹

Question: With B17 as the binder, how does the Kd read?
Answer: < 0.108 nM

Question: And the koff?
Answer: < 1e-05 s⁻¹

Question: What about the kon of the same binder?
Answer: 92900 M⁻¹ s⁻¹

Question: Which Kd does the source give for B18 here?
Answer: < 0.117 nM

Question: And the koff?
Answer: < 1e-05 s⁻¹

Question: What about the kon of the same binder?
Answer: 85200 M⁻¹ s⁻¹

Biological target: T3, human TSLP-Fc (human, biotin-labeled)
T3 construct: Prepared in-house; also called biotin-labeled human TSLP-Fc; TSLP-Fc-biotin
Experiment: competitive ELISA: antibody pre-mixed with biotin-labeled human TSLP-Fc; blocked binding to coated Tezepelumab

Question: B1 was tested. Which IC50 did it give?
Answer: 0.381 nM

Question: For B2, which IC50 is on record?
Answer: 0.403 nM

Biological target: T3, human TSLP-Fc
Experiment: as above
Remark: another data set of the same source

Question: How did the IC50 turn out when B1 was run?
Answer: 1.06 nM

Question: For B19, which IC50 is on record?
Answer: 0.78 nM

Question: For B2, which IC50 is on record?
Answer: 0.909 nM

Question: B20 was tested. Which IC50 did it give?
Answer: 0.806 nM

Biological target: T2, Recombinant human TSLP-his
Experiment: capture ELISA: antibody captured on anti-IgG Fc coat, biotin-labeled human TSLP-his detected with streptavidin-HRP

Question: Which EC50 does the source give for B1 here?
Answer: 0.173 nM

Question: Which EC50 does the source give for B2 here?
Answer: 0.169 nM

Biological target: T2, Recombinant human TSLP-his
Experiment: as above
Remark: another data set of the same source

Question: Which EC50 does the source give for B1 here?
Answer: 0.124 nM

Question: How did the EC50 turn out when B19 was run?
Answer: 0.116 nM

Question: For B2, which EC50 is on record?
Answer: 0.102 nM

Question: How did the EC50 turn out when B20 was run?
Answer: 0.11 nM

Biological target: T3, human TSLP-Fc
Experiment: competitive ELISA: antibody pre-mixed with biotin-labeled human TSLP-Fc; blocked binding to coated human TSLPR-Fc/IL7Ra-Fc

Question: For B1, which IC50 is on record?
Answer: 0.145 nM

Question: B2 was tested. Which IC50 did it give?
Answer: 0.123 nM

Biological target: T3, human TSLP-Fc
Experiment: as above
Remark: another data set of the same source

Question: For B19, which IC50 is on record?
Answer: 0.707 nM

Question: B2 was tested. Which IC50 did it give?
Answer: 0.958 nM

Question: B20 was tested. Which IC50 did it give?
Answer: 0.758 nM

Biological target: T3, human TSLP-Fc
Experiment: cell-based ligand-blocking FACS: antibody pre-mixed with human TSLP-Fc; blocked binding to BAF3-3E6 cells expressing human TSLPR and IL7R

Question: Which IC50 does the source give for B1 here?
Answer: 2.38 nM

Question: How did the IC50 turn out when B2 was run?
Answer: ~3.07 nM

Biological target: T3, human TSLP-Fc
Experiment: as above
Remark: another data set of the same source

Question: For B1, which IC50 is on record?
Answer: ~1.1 nM

Question: For B19, which IC50 is on record?
Answer: ~1.12 nM

Question: For B2, which IC50 is on record?
Answer: ~1.09 nM

Question: How did the IC50 turn out when B20 was run?
Answer: ~1.14 nM
